Test results from publication PMC5014123 (Nature communications, 2015).
Where “and” joins values, the source holds several entries; their conditions need not be identical. Equal entries are not always repeated. Non-standard residues stand in square brackets, D forms with d.

B1: cyclo-RLsKDK (BK-1361) (peptide)
peptide: cyclo(RL[dS]KDK)
SMILES: CC(C)C[C@@H]1NC(=O)[C@H](CCCNC(=N)N)NC(=O)[C@H](CCCCN)NC(=O)[C@H](CC(=O)O)NC(=O)[C@H](CCCCN)NC(=O)[C@@H](CO)NC1=O
B2: Inactive recombinant human ADAM8 (Met1-Pro497) (domain or fragment, UniProt P78325-1 17-497, looked up)
chain: IAPSRPWALMEQYEVVLPWRLPGPRVRRALPSHLGLHPERVSYVLGATGHNFTLHLRKNRDLLGSGYTETYTAANGSEVTEQPRGQDHCFYQGHVEGYPDSAASLSTCAGLRGFFQVGSDLHLIEPLDEGGEGGRHAVYQAEHLLQTAGTCGVSDDSLGSLLGPRTAAVFRPRPGDSLPSRETRYVELYVVVDNAEFQMLGSEAAVRHRVLEVVNHVDKLYQKLNFRVVLVGLEIWNSQDRFHVSPDPSVTLENLLTWQARQRTRRHLHDNVQLITGVDFTGTTVGFARVSAMCSHSSGAVNQDHSKNPVGVACTMAHEMGHNLGMDHDENVQGCRCQERFEAGRCIMAGSIGSSFPRMFSDCSQAYLESFLERPQSVCLANAPDLSHLVGGPVCGNLFVERGEQCDCGPPEDCRNRCCNSTTCQLAEGAQCAHGTCCQECKVKPAGELCRPKKDMCDLEEFCDGRHPECPEDAFQENGTP

Experiments:
MMP-2 = MMP-2 (UniProt P08253 30-660); assay: cell-based or functional assay
Sequence of MMP-2 (P08253 30-660): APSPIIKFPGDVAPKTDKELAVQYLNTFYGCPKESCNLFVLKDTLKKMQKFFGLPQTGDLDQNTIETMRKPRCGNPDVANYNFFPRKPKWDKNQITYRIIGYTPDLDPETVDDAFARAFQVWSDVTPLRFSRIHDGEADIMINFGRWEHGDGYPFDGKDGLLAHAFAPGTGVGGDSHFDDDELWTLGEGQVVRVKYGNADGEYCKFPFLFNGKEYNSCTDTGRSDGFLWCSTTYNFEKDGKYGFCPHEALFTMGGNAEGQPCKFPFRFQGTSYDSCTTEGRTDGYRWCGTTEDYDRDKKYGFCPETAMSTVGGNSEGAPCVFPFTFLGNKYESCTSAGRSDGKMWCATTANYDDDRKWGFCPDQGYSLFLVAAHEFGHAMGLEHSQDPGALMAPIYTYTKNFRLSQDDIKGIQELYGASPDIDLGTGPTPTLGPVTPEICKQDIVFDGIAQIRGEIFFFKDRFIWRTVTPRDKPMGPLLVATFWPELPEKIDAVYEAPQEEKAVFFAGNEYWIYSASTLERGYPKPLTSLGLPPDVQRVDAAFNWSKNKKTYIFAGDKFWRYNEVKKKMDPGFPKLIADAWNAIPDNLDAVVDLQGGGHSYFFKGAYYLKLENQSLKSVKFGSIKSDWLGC

MMP-14 = MMP-14 (UniProt P50281 112-541); assay: cell-based or functional assay
native gel or EMSA = target: the molecule itself; assay: native gel or EMSA

Binder	IC50 of inhibition of catalytic activity (substrate Mca-PLGL-Dpa-AR-NH2) (MMP-2) [µM]	IC50 of inhibition of catalytic activity (substrate Mca-KPLGL-Dpa-AR-NH2) (MMP-14) [µM]	stoichiometry N (native gel or EMSA)
B1	> 10	> 10	–
B2	–	–	2 and 3
